According to article PMC4503318 (Chemistry & biology, 2015):
Where two headings read alike, the source gives them in different places.

Experiments:
crystal structure [1] = biological target: the molecule itself; experiment: crystal structure
crystal structure [2] = biological target: the molecule itself; experiment: crystal structure; remark: listed apart in the source

B1: Plasmodium falciparum lysyl-tRNA synthetase (PfLysRS), residues 77-583 (enzyme)
chain: not shown
B1: binds (crystal structure [1]).

B2: Pf-like human LysRS (human LysRS 70-584 with P300T, Q321V, T337S) (enzyme)
chain: not shown
B2: binds (crystal structure [2]).
